# Article PMC7293229
# How the values were obtained:
# GxtA = assay: crystal structure; GxtA crystallised anaerobically, hanging drop, 0.3 M MgCl2, 0.1 M Bis-Tris pH 5.5, 25% PEG3350, 15% glycerol, 20 °C; without and with 20 mM ddSTX; three molecules in the asymmetric unit
# SxtT = assay: crystal structure; SxtT crystallised anaerobically, hanging drop, 2.0 M (NH4)2SO4, 0.1 M Bis-Tris pH 6.5, 10% glycerol, 20 °C; without and with 20 mM ddSTX; three molecules in the asymmetric unit
Substance,stoichiometry N (GxtA),stoichiometry N (SxtT)
GxtA (enzyme),3,–
SxtT (enzyme),–,3
